Target: WT Max (Homo sapiens, UniProt P61244-2 13-93, M65Nle, norleucine written as M; other non-natural residues written as X)
Assay: PBM; 50-200 nM protein; PBS, 2% milk, BSA, salmon testes DNA, 0.02% Triton X-100
Details: chain copies: 2; label: surface-attached array probe

Chain of WT Max (P61244 other isoform, or with tags, fused parts or gaps M65Nle): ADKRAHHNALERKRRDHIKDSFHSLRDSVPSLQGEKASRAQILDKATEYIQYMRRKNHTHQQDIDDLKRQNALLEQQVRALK

B1: dBr_Jan07_11048 (dsDNA)
DNA 1: CGAAATCTTACATGCTCTTGGGTCTAAGACGCACGTGTCTGTGTTCCGTTGTCCGTGCTG
DNA 2: CAGCACGGACAACGGAACACAGACACGTGCGTCTTAGACCCAAGAGCATGTAAGATTTCG
- binding signal: 5.56 robust z of log adjusted intensity (ours), mean of two arrays

B2: dBr_Jan07_09181 (dsDNA)
DNA 1: CACATTATTTCACACGTGGACGGCACCCACAAACACGTCTGTGTTCCGTTGTCCGTGCTG
DNA 2: CAGCACGGACAACGGAACACAGACGTGTTTGTGGGTGCCGTCCACGTGTGAAATAATGTG
- binding signal: 3.99 robust z of log adjusted intensity (ours), mean of two arrays

B3: dBr_Jan07_05071 (dsDNA)
DNA 1: CGTGTAACCTTCAGGCACGTGGTTTAATCGTTATCCGTCTGTGTTCCGTTGTCCGTGCTG
DNA 2: CAGCACGGACAACGGAACACAGACGGATAACGATTAAACCACGTGCCTGAAGGTTACACG
- binding signal: 4.32 robust z of log adjusted intensity (ours), mean of two arrays

B4: dBr_Jan07_13904 (dsDNA)
DNA 1: CGCTGCCCCATATTTGTCATGCGTTTGCGGCACGTGGTCTGTGTTCCGTTGTCCGTGCTG
DNA 2: CAGCACGGACAACGGAACACAGACCACGTGCCGCAAACGCATGACAAATATGGGGCAGCG
- binding signal: 3.73 robust z of log adjusted intensity (ours), mean of two arrays

B5: dBr_Jan07_02368 (dsDNA)
DNA 1: CTGTAGAACTGGCATCTTCAATCCACCGCGTGGTGAGTCTGTGTTCCGTTGTCCGTGCTG
DNA 2: CAGCACGGACAACGGAACACAGACTCACCACGCGGTGGATTGAAGATGCCAGTTCTACAG
- binding signal: 5.5 robust z of log adjusted intensity (ours), mean of two arrays

B6: dBr_Jan07_20507 (dsDNA)
DNA 1: GTGCCCGATTGTCTACGGCACCACGTGTGTTACCAGGTCTGTGTTCCGTTGTCCGTGCTG
DNA 2: CAGCACGGACAACGGAACACAGACCTGGTAACACACGTGGTGCCGTAGACAATCGGGCAC
- binding signal: 4.13 robust z of log adjusted intensity (ours), mean of two arrays

B7: dBr_Jan07_03394 (dsDNA)
DNA 1: ATGGACCAATTGCGCGGAATGACGTGTCGCGCACGTGTCTGTGTTCCGTTGTCCGTGCTG
DNA 2: CAGCACGGACAACGGAACACAGACACGTGCGCGACACGTCATTCCGCGCAATTGGTCCAT
- binding signal: 3.89 robust z of log adjusted intensity (ours), mean of two arrays

B8: dBr_Jan07_15832 (dsDNA)
DNA 1: TGCTAGGTGCGGGGCGTGCCATTGTACCACGTGGCTGTCTGTGTTCCGTTGTCCGTGCTG
DNA 2: CAGCACGGACAACGGAACACAGACAGCCACGTGGTACAATGGCACGCCCCGCACCTAGCA
- binding signal: 3.84 robust z of log adjusted intensity (ours), mean of two arrays

B9: dBr_Jan07_07015 (dsDNA)
DNA 1: CGATACTGTATCGCATGGACAGCACGTGCAATTAGGGTCTGTGTTCCGTTGTCCGTGCTG
DNA 2: CAGCACGGACAACGGAACACAGACCCTAATTGCACGTGCTGTCCATGCGATACAGTATCG
- binding signal: 3.94 robust z of log adjusted intensity (ours), mean of two arrays

B10: dBr_Jan07_16170 (dsDNA)
DNA 1: TACTAGATTACTACAGACGTTTGCGATCACGTGCATGTCTGTGTTCCGTTGTCCGTGCTG
DNA 2: CAGCACGGACAACGGAACACAGACATGCACGTGATCGCAAACGTCTGTAGTAATCTAGTA
- binding signal: 5.85 robust z of log adjusted intensity (ours), mean of two arrays

B11: dBr_Jan07_20372 (dsDNA)
DNA 1: TCGTTTGTACACGTGGGTTTGCAAGAGTAAGTGTCCGTCTGTGTTCCGTTGTCCGTGCTG
DNA 2: CAGCACGGACAACGGAACACAGACGGACACTTACTCTTGCAAACCCACGTGTACAAACGA
- binding signal: 4.3 robust z of log adjusted intensity (ours), mean of two arrays

B12: dBr_Jan07_17036 (dsDNA)
DNA 1: ACATTTCTCCGCTCGTCCCACATAGCGTCACGTGGGGTCTGTGTTCCGTTGTCCGTGCTG
DNA 2: CAGCACGGACAACGGAACACAGACCCCACGTGACGCTATGTGGGACGAGCGGAGAAATGT
- binding signal: 4.03 robust z of log adjusted intensity (ours), mean of two arrays

B13: dBr_Jan07_24960 (dsDNA)
DNA 1: CGCAAAGCATTATCAACCTGGGTGCCTATCACGTGGGTCTGTGTTCCGTTGTCCGTGCTG
DNA 2: CAGCACGGACAACGGAACACAGACCCACGTGATAGGCACCCAGGTTGATAATGCTTTGCG
- binding signal: 4.08 robust z of log adjusted intensity (ours), mean of two arrays

B14: dBr_Jan07_17989 (dsDNA)
DNA 1: GTCACGTGAATGCGACCCGCCAATTGGAAATTAAATGTCTGTGTTCCGTTGTCCGTGCTG
DNA 2: CAGCACGGACAACGGAACACAGACATTTAATTTCCAATTGGCGGGTCGCATTCACGTGAC
- binding signal: 4.17 robust z of log adjusted intensity (ours), mean of two arrays

B15: dBr_Jan07_23485 (dsDNA)
DNA 1: CAGTGTAGAAAGTGAACACGTGTGACACGCCTGGTTGTCTGTGTTCCGTTGTCCGTGCTG
DNA 2: CAGCACGGACAACGGAACACAGACAACCAGGCGTGTCACACGTGTTCACTTTCTACACTG
- binding signal: 4.26 robust z of log adjusted intensity (ours), mean of two arrays

B16: dBr_Jan07_02651 (dsDNA)
DNA 1: TGCATAACGACCGGCACGTGCCTTTCATATGTATCTGTCTGTGTTCCGTTGTCCGTGCTG
DNA 2: CAGCACGGACAACGGAACACAGACAGATACATATGAAAGGCACGTGCCGGTCGTTATGCA
- binding signal: 3.82 robust z of log adjusted intensity (ours), mean of two arrays

B17: dBr_Jan07_06714 (dsDNA)
DNA 1: TTCCGCGTGGACGTGACATCGTAGACGATTACCCACGTCTGTGTTCCGTTGTCCGTGCTG
DNA 2: CAGCACGGACAACGGAACACAGACGTGGGTAATCGTCTACGATGTCACGTCCACGCGGAA
- binding signal: 4.26 robust z of log adjusted intensity (ours), mean of two arrays

B18: dBr_Jan07_08390 (dsDNA)
DNA 1: GTATTGTTGCGTATGTCACGTGGTACAAAACCCAGGGTCTGTGTTCCGTTGTCCGTGCTG
DNA 2: CAGCACGGACAACGGAACACAGACCCTGGGTTTTGTACCACGTGACATACGCAACAATAC
- binding signal: 4.12 robust z of log adjusted intensity (ours), mean of two arrays

B19: dBr_Jan07_27306 (dsDNA)
DNA 1: ACTATACAGTTTATTCATACACGGGTGCCTGCACGTGTCTGTGTTCCGTTGTCCGTGCTG
DNA 2: CAGCACGGACAACGGAACACAGACACGTGCAGGCACCCGTGTATGAATAAACTGTATAGT
- binding signal: 3.99 robust z of log adjusted intensity (ours), mean of two arrays

B20: dBr_Jan07_31948 (dsDNA)
DNA 1: TGTCATTACCTGTCCGAGCAGGACAAAAAACCACGTGTCTGTGTTCCGTTGTCCGTGCTG
DNA 2: CAGCACGGACAACGGAACACAGACACGTGGTTTTTTGTCCTGCTCGGACAGGTAATGACA
- binding signal: 4.44 robust z of log adjusted intensity (ours), mean of two arrays

B21: dBr_Jan07_32059 (dsDNA)
DNA 1: CCGGTCACTGCCGGTGATGCCCTGCTTTATCACGTGGTCTGTGTTCCGTTGTCCGTGCTG
DNA 2: CAGCACGGACAACGGAACACAGACCACGTGATAAAGCAGGGCATCACCGGCAGTGACCGG
- binding signal: 4.08 robust z of log adjusted intensity (ours), mean of two arrays

B22: dBr_Jan07_10488 (dsDNA)
DNA 1: ACCTCGGACATGCACATTTGTCTTAAACCACGTGCGGTCTGTGTTCCGTTGTCCGTGCTG
DNA 2: CAGCACGGACAACGGAACACAGACCGCACGTGGTTTAAGACAAATGTGCATGTCCGAGGT
- binding signal: 4.16 robust z of log adjusted intensity (ours), mean of two arrays

B23: dBr_Jan07_23034 (dsDNA)
DNA 1: TCCGTACGGTCTCGTTCCATAGCTTGCTACCATGTGGTCTGTGTTCCGTTGTCCGTGCTG
DNA 2: CAGCACGGACAACGGAACACAGACCACATGGTAGCAAGCTATGGAACGAGACCGTACGGA
- binding signal: 3.64 robust z of log adjusted intensity (ours), mean of two arrays

B24: dBr_Jan07_40749 (dsDNA)
DNA 1: CTTCATGTCGCCCGCGTGGGTTGCCACACCAAGTGCGTCTGTGTTCCGTTGTCCGTGCTG
DNA 2: CAGCACGGACAACGGAACACAGACGCACTTGGTGTGGCAACCCACGCGGGCGACATGAAG
- binding signal: 4.44 robust z of log adjusted intensity (ours), mean of two arrays

B25: dBr_Jan07_15488 (dsDNA)
DNA 1: TAGTAGTCGTTGCTAGCTGCAAGGAATGGCGCACGTGTCTGTGTTCCGTTGTCCGTGCTG
DNA 2: CAGCACGGACAACGGAACACAGACACGTGCGCCATTCCTTGCAGCTAGCAACGACTACTA
- binding signal: 3.81 robust z of log adjusted intensity (ours), mean of two arrays

B26: dBr_Jan07_17404 (dsDNA)
DNA 1: TTGCGTGTTGTGTCTAATATCCAAACTACACCACGTGTCTGTGTTCCGTTGTCCGTGCTG
DNA 2: CAGCACGGACAACGGAACACAGACACGTGGTGTAGTTTGGATATTAGACACAACACGCAA
- binding signal: 4.24 robust z of log adjusted intensity (ours), mean of two arrays

B27: dBr_Jan07_28926 (dsDNA)
DNA 1: CGCAGCCATTACCGCGTGGGAGTATTCGCCCGTACGGTCTGTGTTCCGTTGTCCGTGCTG
DNA 2: CAGCACGGACAACGGAACACAGACCGTACGGGCGAATACTCCCACGCGGTAATGGCTGCG
- binding signal: 3.92 robust z of log adjusted intensity (ours), mean of two arrays

B28: dBr_Jan07_17567 (dsDNA)
DNA 1: CCAAGAGGACCACGTGCTTTGGTCTCTAACTCGTATGTCTGTGTTCCGTTGTCCGTGCTG
DNA 2: CAGCACGGACAACGGAACACAGACATACGAGTTAGAGACCAAAGCACGTGGTCCTCTTGG
- binding signal: 3.82 robust z of log adjusted intensity (ours), mean of two arrays

B29: dBr_Jan07_14817 (dsDNA)
DNA 1: AGCGAGAGGCTGCTCACTCGTGGCAACACCCACGTGGTCTGTGTTCCGTTGTCCGTGCTG
DNA 2: CAGCACGGACAACGGAACACAGACCACGTGGGTGTTGCCACGAGTGAGCAGCCTCTCGCT
- binding signal: 4.16 robust z of log adjusted intensity (ours), mean of two arrays

B30: dBr_Jan07_20580 (dsDNA)
DNA 1: AAATACCTATCGATAACCACTCACGTGGTGGTTCGCGTCTGTGTTCCGTTGTCCGTGCTG
DNA 2: CAGCACGGACAACGGAACACAGACGCGAACCACCACGTGAGTGGTTATCGATAGGTATTT
- binding signal: 3.85 robust z of log adjusted intensity (ours), mean of two arrays

B31: dBr_Jan07_41742 (dsDNA)
DNA 1: AGAGTCATTGGGGAGGCAAAATTCCCACGTGTATCGGTCTGTGTTCCGTTGTCCGTGCTG
DNA 2: CAGCACGGACAACGGAACACAGACCGATACACGTGGGAATTTTGCCTCCCCAATGACTCT
- binding signal: 4.07 robust z of log adjusted intensity (ours), mean of two arrays

B32: dBr_Jan07_17844 (dsDNA)
DNA 1: AATGGACTCGTTTTTTTTGCGTTATTAGACCACGCGGTCTGTGTTCCGTTGTCCGTGCTG
DNA 2: CAGCACGGACAACGGAACACAGACCGCGTGGTCTAATAACGCAAAAAAAACGAGTCCATT
- binding signal: 3.78 robust z of log adjusted intensity (ours), mean of two arrays

B33: dBr_Jan07_37497 (dsDNA)
DNA 1: CCAGTTAGTAACACGTGTCCACTCCTTGTCGTACAGGTCTGTGTTCCGTTGTCCGTGCTG
DNA 2: CAGCACGGACAACGGAACACAGACCTGTACGACAAGGAGTGGACACGTGTTACTAACTGG
- binding signal: 4.27 robust z of log adjusted intensity (ours), mean of two arrays

From paper PMC12636033, “Chemical Engineering of Transcription Factors Uncovered Cell-Permeable μMax Modulators”
